Experimental data: the nanobody polyreactivity screen of Harvey et al. (2022)

Assay: yeast display, Sf9 membrane polyspecificity reagent, FACS + sequencing; frameworks hold sequencing errors
How it was run: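 Galactose induction of a Saccharomyces cerevisiae BJ5465 synthetic nanobody display library ran 36–48 hours. The cells were then stained for 1 hour at 4 °C with 10% biotinylated, detergent-solubilized Sf9 membrane reagent, pulled down on streptavidin microbeads and FACS-sorted into low and high (top ~1%) gates on expression and reagent-binding fluorescence. Labels for polyreactivity follow the gate of origin.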
For “QVQLVESGGGLVQAGGSLRLSCASSGIIFVYYAMGWYRQAPGKERELVAVITESGVSTYYADSVKGRFTISRDNAKNTVYLQMNSLKPEDTAVYYCNRDYPYIWHKGARYWHENDYWGQGTQVTVSS”, the “polyreactivity (PSR sort gate)” value was “low polyreactivity”.
In the case of “QVQLVESGGGLVQAGGSLRLSCAASGSTFGGYTMGWYRQAPGKERELVAAISRRGGSTYYADSVKGRFTISRDNAKNTVYLQMNSLKPEDTAVYYCAALYVYRPRTPYGYWGQGTQVTVSS”, the “polyreactivity (PSR sort gate)” value is reported as “high polyreactivity”.
With “QVQLVESGGGLLQAGGSLRLSCAASGRIFTLYDMGWYRQAPGKERELDAAISNSAGSTYYADSVKGRFTISLDNAKNTVYLQMNSLKTEDTAGYYCARSFSYWGYRSVYYWGQGTQVTVSS” the “polyreactivity (PSR sort gate)” value was “high polyreactivity”.
In the case of “QVQLVESGGGLVQAGGSLRLSCAASGSTFYYAIGRYRQAPGKERELVASITFSTGSTYYADSVKGRFTISRDNAKNTVYLQLNSLKPEDTAVYYCATGVDTYSLTVEHDSWGQGTQVTVSS”, the “polyreactivity (PSR sort gate)” value is reported as “low polyreactivity”.
With “QVQLVESGGGLVQAGGSLRLSCAASGFTFYRNAMGWYRQAPGKERELVAGISKRGGSTYYADSVKGRFTISRDNAKNTVYLQMNSLKPEDTAVYYCARGGYPGSAEYDYWGQGTQVTVSS” the “polyreactivity (PSR sort gate)” value was “high polyreactivity”.
In the case of “QVQLVESGGGLVQAGGSLRLSCAASGNIFDLYAMGWYRQAPGKERELVAAITRSSSRTYYADSVKGRFTISRDNAKNTVYLQMNSLKPEDTAVYYCAAKYSNGSGFDYWGQGTQVTVSS”, the “polyreactivity (PSR sort gate)” value is reported as “high polyreactivity”.
For “QVQLVESGGGLVQAGGRLRLSCAASGRIFGFNAMGWYRQAPGKERELVAAIDGNDASTFYADSGKGRFTISRDNAKNTDYFQMNSLKPEDTAVYYCAAESSYVYLGWREYWGQGTQVTVSS”, the “polyreactivity (PSR sort gate)” value was “high polyreactivity”.
With “QVQLVESWGGLVQAGGSLRLSCAASGSIFRGYAMGWYRQAPGKGRELVAAISWSGASTYYADSVKGRFTISRDNAKNTVYLKMNSLKPEDTAVYYCAAVQWTGYPFDYWGQGTQVTVSS” the “polyreactivity (PSR sort gate)” value was “high polyreactivity”.
In the case of “QVQLVESGGGLVQAGGSLRLSCAASGFTFWRYAMGWYRQAPGKERELVAAINWSGGSTNYADSVKGRFTISRDNAKNTVYLQMNSLKPEDTAVYYCAVDPYQNDPSRWYTYPRRGNYWGQGTQVTVSS”, the “polyreactivity (PSR sort gate)” value is reported as “high polyreactivity”.
With “QVQLVESGGGLVQAGGSLRLSCAASGRIFWANAMGWYRQAPGKERELVAAISYSGVSTYYADSVKGRFTISRDNAKNTVYLQMNSLKPEDTAVYFCAADRYRKYYYWGQGTQVTVSS” the “polyreactivity (PSR sort gate)” value was “high polyreactivity”.
With “QVQLVESGGGLVQAGGSLRLSCAASGSIFYYNTMGWYRQAPGKERELVAAITSTGRTNYADSVKGRFTISRDNAKNTVYLQMNSLKPEDSAVYYCAKRRFGDGDYWGQGTQVTVSS” the “polyreactivity (PSR sort gate)” value was “low polyreactivity”.
For “QVQLVESGGGLVQAGGSLRLSCAASGSIFPGFAMGWYRQAPGKERELVAAISTSGGNTYYADSVKGRFTISRDNAKNTVYLQMNSLKPEDTAVYYCAVRHRLYTAGYDYWGQGTQVTVSS”, the “polyreactivity (PSR sort gate)” value was “low polyreactivity”.
With “QVQLVESGGGLVQAGGSLRLSCAASGFTFPYYAMGWSRQAPGKERELVAAISFSGGSPYYADSVKGRFTISRDNAKNTVYLQMNSLKPEDTAVYYCAATTKYNGRRSYFKFDYWGQGTQVTVST” the “polyreactivity (PSR sort gate)” value was “high polyreactivity”.
For “QVQLVESGGGLFQAGGSLRLSCADYGSTFRTYVMGWYRQAPGKESEFVAAITNGISTNYADSVKGRFTISRDNAKYTFYLQMNSLKPEDTAVYYCAARVRRGSTQAQYYYWGQGTQVTVSS”, the “polyreactivity (PSR sort gate)” value was “high polyreactivity”.
For “QVQLVESGGVLVQAGGSLRLSCAASGFIFSEYAMGWYRHAPGKERELVAAISRSGGRTYYADSVKGRFTISRDNAKNTVYLQMNSLKPEDTAVYYCAAVWWWYYNHYYYWGQGTLVTVSS”, the “polyreactivity (PSR sort gate)” value was “high polyreactivity”.
In the case of “QVQLVESGGGLVQAGGSLRLSCAASGRILQGYAMGWYRQAPGKERELVASIRTGGTTNYADSVKGRFTISRDNAKNTVYLQMNSLKPEDTAVYYCNLGYYSYYGRYYYWGQGTQVTVSS”, the “polyreactivity (PSR sort gate)” value is reported as “high polyreactivity”.
With “QVQLVESGGGLVQAGGSLRLSCAASGFIIQGNAMGRYRQAPGKERELVAAISSSVSTYYADSVKGRFTISRDNAKNTVYLQMNSLKPEDTAVYYCNAGFPLSLWLGDYWGQGTQVTVSS” the “polyreactivity (PSR sort gate)” value was “low polyreactivity”.
For “QVQLVESGGGLVQAGGSLRLSCAASGRIFSAYVMGWYRQAPGKERELVAAISSGGSRTSYADSVKGRVTISRDNAKNTVYLQMISLKPEDTAVYYCAASATFWGQGTQVNVSS”, the “polyreactivity (PSR sort gate)” value was “high polyreactivity”.
With “QVQLVESGGALVQAGGSLRLSCAASGFTFRSYVMGWYRQAPGKERELVAAISGSGASTYYADSVKGRFTLSRDNAKNTVYLQMNSLKPEDTAVYYCAATSPYKYWYRYNYWGHGTQVTVSS” the “polyreactivity (PSR sort gate)” value was “high polyreactivity”.
In the case of “QVQLVESGGGLVQAGGSLRLSCAASGYIFRYNAMGWYRQAPGKEREFVASISQRGGSTYYADSVKGRFTISRDNAKNTVYLQMNSLKPEDTAVYYCAARLGYYSYEYNYWGQGTQVTVSS”, the “polyreactivity (PSR sort gate)” value is reported as “high polyreactivity”.
In the case of “QVQLVESGGGLVQAGGSLRLSCAASGRIFKRSVMGWYRQAPGKERELVAAITGRGGSTYYADSVKGRFTISRDNAKNTVYLQMNSLKPEDTAVYYCNAKDAEHYERFNYWGQGTQVTVSS”, the “polyreactivity (PSR sort gate)” value is reported as “low polyreactivity”.
In the case of “QDQLVESDAGLVQAGGSLRLSCAASGRIFLGNAMGRSIQPPGNERELVAAITYSGRSTYYSDSVKGRLTISRDNAKNTLYLQMNSLKPEDTAVYYCAARQYWTTDLPFQRYYYWGPGTQVTVSS”, the “polyreactivity (PSR sort gate)” value is reported as “low polyreactivity”.
In the case of “QVQLVESGGGLVQAGGSLRLSCAASGSTFSANAMGWYRQAPGKERELVADISTGGSTKYADSVKGRFTISRDNAKNTVYLQMNSLKPEDTAVYYCAARRRWARGSAIRGYWGQGTQVTVSS”, the “polyreactivity (PSR sort gate)” value is reported as “high polyreactivity”.
For “QVQLVETGGGLVQAAGSLRLSSAASGSTFLANTMGWYRQEPGKEREFVAAITRRGGSTYYADSVKGRFTISRDNAKNTVYLQMNSLKPEDTAVYYCNADWYFQYPYDYWGQGTQVTVSS”, the “polyreactivity (PSR sort gate)” value was “low polyreactivity”.
For “QVQLVESGGGLVQAGGSLRLSCAASGFTFDAYAMGWYRQAPGKERELVADINYSVGSTTYADSVKVRFTISRDNAKNTVYLQMNSLKPEDTAVYYCAAQGTWYAWDYDYWGQGTQVTVSS”, the “polyreactivity (PSR sort gate)” value was “low polyreactivity”.
In the case of “QVQLVESGGGLVQAGGSLRFSCAASGRIFVNYAMGWYRQAPGKEREFVAAITSSGGSTYYADSVKGRFTISRDNAKNTVYLQMNSLKPEDTAVYYCAARGSLGGWGLRYYWGQGTQVTVSS”, the “polyreactivity (PSR sort gate)” value is reported as “high polyreactivity”.
With “QVQLVESGGGLVQAGGSLRLSCAASGRTFTRYTKGWYRQAPRKERDLVAASTRGGSTYADSVKGRFTNSRDNAKNTVYLEMNSLKPEDTAVYYCAAYWGFFPWRAYPYDYWGQGTQVTVSS” the “polyreactivity (PSR sort gate)” value was “high polyreactivity”.
For “QVQLVESGGGLVQAGGSLRLSCAASGTTFTFNAMGWSRQAPGKERELVAAMSRSGGRTYYADSVKGRFTISRDNAKNTVYLQMNSLNPEDTAVYYCANDFVEQGRYNVGYWGQGTQVTGSS”, the “polyreactivity (PSR sort gate)” value was “high polyreactivity”.
For “QVQLVESGGGLVQAGGSLRLSCAASGFTKFYNAMGWYRQAPGKERELVAAITARGGGTYYADSVKGRFTFSRDNAKNTVYLLMNSLKPEDTAVYYCAKQPIIYWQSSRFDYWGQGTQVTVSS”, the “polyreactivity (PSR sort gate)” value was “low polyreactivity”.
With “QVQLVESGGGLVQAGGSLRLSCAASGSITGLNAMGWYRHAPGKERELVAAIYRSGGRTYNADSVKGRFTISRDNAKNTVYLQMISLKPEDTAVYYCAAVTTWRLDYWGQGTQVTVSS” the “polyreactivity (PSR sort gate)” value was “high polyreactivity”.
For “QVQLVESGGGLVQAGGSLRLSCAASGSIVIINAMGWYRQAPGKERELVASMTRNGGSTYYADSVKGRFTISRDNPKNTVEFQMNSLKPDDTAVYYCAATYYRFPSLIAYVRYDYWGQGTQVTVSS”, the “polyreactivity (PSR sort gate)” value was “high polyreactivity”.
With “QVQLVESGGGLVQAGGSLRLSCAASGITFRLYAMGWYRQAPGKERELVAAISKRGGSTYYADSVKGRFTISRDNAKNTVYLQMNSLKPEDTAVYYCAADSGWEHRYDYWGQGTQVTVSS” the “polyreactivity (PSR sort gate)” value was “high polyreactivity”.
In the case of “QVQLVESGGGLVQAGGSLRLSCAASGRIFTFYAMGWYRQAPGKERELVAAITSGGSTYYADSVKGRFTISRDNAKNTVYLQMNSLKPEDTAVYYCNALHHTQHDYWGQGTQVTVSS”, the “polyreactivity (PSR sort gate)” value is reported as “low polyreactivity”.
With “QVQLVESGGGLVQAGGSLRLSCAPSGSTFLDNAMGLYRQAPGKESELVAAISRGGSTNYADSVKWLFTSSRDNAKNTVYLQMNSLKPEDTAVYYCAARVNYASRYWYYIIRGTIDYYWGQGTQVTVSS” the “polyreactivity (PSR sort gate)” value was “low polyreactivity”.
In the case of “QVQLVESGGGLVQAGGSLRLSCAASGRTLYLYAMGWYRQAPGKERELVAGITWSGGSTYYADSVKGRFTISRDNAKNTVYLQMNSLKPEDTAVYYCAAVSYPDYDYWGQGTQVTVSS”, the “polyreactivity (PSR sort gate)” value is reported as “low polyreactivity”.
With “QVQLVESGGGLVQAGGSLRLTCAASGSIFFPNTMGWSRQAPGKERELVASISYSGGSTYYADSVKGRFTISRDIAKNSVYLQMNSLKPEDTAVYYCARTYWGDRYQFSSNGYEYWGQGTQVTVSS” the “polyreactivity (PSR sort gate)” value was “high polyreactivity”.
With “QVQLVESGGGLVQAGGSLRLSCAASGRIFYFYPMGWYRQAPGKERELVAAISTSGGSTYYADSVKGRFTISRDNAKNTVYLQMNSLKPEDTAVYYCAARFRYYVSEYDYWGQGTQVTVSS” the “polyreactivity (PSR sort gate)” value was “low polyreactivity”.
In the case of “QVQLVESGGGLVQAGGSLRLSCAASGYTFALYAMGWYRQAPGKERELVAAITWNGGSTYYADSVKGRFTISRDNAKNTVYLQMNSLKPEDTSVYYCNVESSQSSSGFDYWGQGTQVTVSL”, the “polyreactivity (PSR sort gate)” value is reported as “low polyreactivity”.
For “QVQLVESGGGLVQAGGSLRLSCAASGFIIARNAMGWYRQAPGKERELVAAISASGGRTYYADSVKGRFTISRDNAKNTVYLQMNSLKPEDTAVYYCAARRDGRSGSYNYWGQGTQVTVSS”, the “polyreactivity (PSR sort gate)” value was “high polyreactivity”.
For “QVQLVESGGGLVQAGGSLRLSCAASGSTFVSNAMGWYRQAPGKERELVASISQSGGGTDYADSVKGRFTISRDNAKNTVYLQMNSLKPEDTAVYYCAADRVPVQAPYDYWGQGTQVTVSS”, the “polyreactivity (PSR sort gate)” value was “high polyreactivity”.
With “QVQLVESGGGLVQAGGSLRLSCAASGSIFLVNAKGWYRQAPGKERELVAAITWIGGSTYYADSVKGRFTISRDNAKNTVYLQMNSLKPEDTAVYYCAAYGKRLGGGGYYWGQGTQVTVSS” the “polyreactivity (PSR sort gate)” value was “high polyreactivity”.
